According to US20260184804A1 (KEY2BRAIN, published 2026):
Numbering of substitutions follows the chain as printed. Numbers in names are those of the source.

How the values were obtained:
[1] = biological target: T1, His-tagged ectodomain of human transferrin receptor 1 (hTfR1), amino acids R121-F760 (human, UniProt P02786 121-760); assay: SPR (Biacore 8K, single-cycle); hTfR1 amine-coupled on CM5, fusion as analyte 0.25-64 nM
T1 construct: Made in CHO cells, purified by IMAC; also called human TfR1; ectodomain of hTfR1
T1 sequence (P02786 other isoform, or with tags, fused parts or gaps limits assumed): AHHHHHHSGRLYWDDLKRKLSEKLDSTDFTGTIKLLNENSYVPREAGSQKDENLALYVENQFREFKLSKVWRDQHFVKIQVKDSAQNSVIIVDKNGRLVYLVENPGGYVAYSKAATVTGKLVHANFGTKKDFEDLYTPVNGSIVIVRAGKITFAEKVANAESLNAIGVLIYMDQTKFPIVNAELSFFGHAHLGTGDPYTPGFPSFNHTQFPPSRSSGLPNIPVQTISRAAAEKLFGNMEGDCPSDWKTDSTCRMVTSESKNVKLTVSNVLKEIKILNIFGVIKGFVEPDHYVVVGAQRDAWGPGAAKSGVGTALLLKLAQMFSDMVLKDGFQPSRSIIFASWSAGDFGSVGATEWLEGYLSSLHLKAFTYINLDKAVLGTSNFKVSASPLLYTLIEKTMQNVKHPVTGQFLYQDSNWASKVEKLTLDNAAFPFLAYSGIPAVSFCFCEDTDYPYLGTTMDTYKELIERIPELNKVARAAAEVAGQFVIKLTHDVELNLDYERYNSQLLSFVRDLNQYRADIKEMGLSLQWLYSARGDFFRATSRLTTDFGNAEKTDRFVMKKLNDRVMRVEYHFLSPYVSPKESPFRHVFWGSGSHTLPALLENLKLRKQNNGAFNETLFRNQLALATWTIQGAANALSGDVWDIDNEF

[2] = biological target: T1, His-tagged ectodomain of human …; assay: SPR (Biacore T200); hTfR1 amine-coupled (~2300 RU), single concentration
Procedure: (§1) Briefly, hTfR1 was covalently immobilized to the surface of a CM5 chip (Cytiva) by amine coupling using standard reagents. […] Subsequently, all six VHHs were diluted in running buffer (PBS supplemented with 0.05% Tween® 20 (PBS-T)) to 100 nM. A signal equal or higher than the corresponding WT was regarded as “binding similar to WT” (see Table 11).

[3] = biological target: T1, His-tagged ectodomain of human …; assay: SPR (Biacore T200); hTfR1 amine-coupled (~1000 RU), single concentration; - = no apparent binding
Procedure: (§2) Briefly, hTfR1 was covalently immobilized to the surface of a CM5 chip (Cytiva) by amine coupling using standard reagents. Human TfR1 was diluted to 15 μg/mL in 10 mM sodium acetate pH 5.5 and immobilizing level was aimed to 1000 response units (RUs). Subsequently, all VHHs were diluted in running buffer (PBS supplemented with 0.05% Tween® 20) to 50 nM. […] Similarly, KB_A15 was also only tested fused to a His6 tag.
(§3) KB_A20-KB_A31 were only produced in CHO cells and purified by PrismA™ resin.

[4] = biological target: T2, His-tagged ectodomain of mouse transferrin receptor 1 (mTfR1), amino acids S122-F763 (mouse, UniProt Q62351 122-763); assay: SPR (Biacore T200); mTfR1 amine-coupled on CM5, KB_A01 as analyte
T2 construct: Made in CHO cells; also called mouse TfR1
T2 sequence (Q62351 other isoform, or with tags, fused parts or gaps limits assumed): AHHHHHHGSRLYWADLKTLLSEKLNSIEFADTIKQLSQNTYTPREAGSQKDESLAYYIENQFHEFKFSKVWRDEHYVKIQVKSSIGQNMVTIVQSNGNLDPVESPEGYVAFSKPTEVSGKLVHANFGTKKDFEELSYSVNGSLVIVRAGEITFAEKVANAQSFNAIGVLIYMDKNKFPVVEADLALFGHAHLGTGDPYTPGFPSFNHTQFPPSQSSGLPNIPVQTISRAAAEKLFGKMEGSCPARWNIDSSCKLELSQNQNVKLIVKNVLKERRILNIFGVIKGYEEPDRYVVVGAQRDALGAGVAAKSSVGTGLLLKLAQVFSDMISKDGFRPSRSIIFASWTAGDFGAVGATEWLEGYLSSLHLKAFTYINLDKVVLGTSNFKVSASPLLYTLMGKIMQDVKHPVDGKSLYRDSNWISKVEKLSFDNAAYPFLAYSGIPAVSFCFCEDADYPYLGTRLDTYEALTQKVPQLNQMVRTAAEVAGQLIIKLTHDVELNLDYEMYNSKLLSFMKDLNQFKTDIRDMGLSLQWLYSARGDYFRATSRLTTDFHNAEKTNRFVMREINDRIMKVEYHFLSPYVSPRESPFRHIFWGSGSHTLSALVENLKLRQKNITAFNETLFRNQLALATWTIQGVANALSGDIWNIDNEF
Procedure: The contact time was 150 s for each concentration at […] with a final dissociation step of 500 s. […] At the end of each single cycle run, the mTfR1 surface was fully regenerated by an injection of 10 mM NaOH for 30 s. After each single cycle kinetic run, blank run was performed and used for baseline correction. The data with respect to the association rate constant (ka), the dissociation rate constant (kd) and the equilibrium dissociation constant (KD) was evaluated using Biacore T200 software evaluation tool applying a Langmuir 1:1 model.

[5] = biological target: T1, His-tagged ectodomain of human …; assay: SPR (Biacore T200, single-cycle); hTfR1 captured on amine-coupled hTf, binder as analyte 6.25-100 nM
[6] = biological target: T1, His-tagged ectodomain of human …; assay: SPR; hTfR1 pre-complexed with immobilised hTf
[7] = biological target: T1, His-tagged ectodomain of human …; assay: SPR (Biacore T200); hTfR1 amine-coupled (~1000 RU), VHH at 50 nM; X = binding similar to control
Procedure: as §2, §3

[8] = biological target: T2, His-tagged ectodomain of mouse …; assay: phage ELISA on coated mTfR1 (1 µg/ml)
Procedure: Selected phage samples were diluted 1:10 in block buffer casein ELISA blocker (ThermoFischer Scientific), 20% v/v PEG8000 in 2.5 M NaCl before the ELISA. The targets (hTfR1, cTfR1, mTfR1) were coated at 1 μg/ml in PBS pH 7.4 overnight at 4° C. in 96-well Greiner plates (non-treated), 100 μl. The coating buffer was discarded and replaced by 100 μl block solution. The plate was covered and incubated at RT for 2 h, 900 rpm. Anti-human TfR1 antibody BA3 (MEM189, Sigma, 1 mg/ml) and anti-mTfR1 (81D3, Novus biologicals, 1 mg/ml) were diluted in block buffer to 100 nM starting concentration and diluted 1:2 in series by transferring 100 μl to 100 μl block buffer. Plates were incubated for 1 h at RT, 900 rpm, Wells were washed 3×300 μl in PBST (PBS with 0.1% Tween® 20) using the 50TS microplate washer (Biotek). Anti-M13 antibody (Anti-PVIII GE Healthcare) diluted 1:4000 in block buffer, 100 μl was added to target-coated wells followed by incubation for 1 h at RT, 900 rpm. Washing with PBST was performed. The secondary anti-mouse antibody (Sigma) 1:4000 in block buffer, incubated 1 h at RT, 900 rpm. Washes in PBST was followed by development with TMB substrate. The reaction was stopped with addition of 2 M H₂SO₄ to each well, readings for absorbance at 450 nm was measured using a SpectraMax 3000 (Molecular Devices). […]

[9] = biological target: T1, His-tagged ectodomain of human …; assay: SPR (Biacore T200); hTfR1 amine-coupled (~1000 RU), VHH at 50 nM; (X) = binding affinity decreased
Procedure: as §2, §3

[10] = biological target: T1, His-tagged ectodomain of human …; assay: SPR (Biacore T200); hTfR1 amine-coupled (~1000 RU), VHH at 50 nM; (-) = binding affinity severely decreased
Procedure: as §2, §3

[11] = biological target: T1, His-tagged ectodomain of human …; assay: SPR (Biacore T200); hTfR1 amine-coupled (~2300 RU), VHH at 100 nM; column: binding to hTfR1 similar to corresponding WT VHH
Procedure: as §1

B1: KB_A01-scFv (scFv of 3D6 at the C-terminus of KB_A01) (bispecific antibody)
chain: QVQLQESGGGSVQAGGSLSLSCAASGSIFGSKRMGWFRQAPGEQRDVVATITYRGTTEYADSVKGRFTISRDNAKNTVYLQMNNLKPEDTAVYYCWMFTTDNYWGQGTQVTVSSGGGGSGGGGSGGGGSEVKLVESGGGLVKPGASLKLSCAASGFTFSNYGMSWVRQNSDKRLEWVASIRSGGGRTYYSDNVKGRFTISRENAKNTLYLQMSSLKSEDTALYYCVRYDHYSGSSDYWGQGTTVTVSGGGGSGGGGSGGGGSYVVMTQTPLTLSVTIGQPASISCKSSQSLLDSDGKTYLNWLLQRPGQSPKRLIYLVSKLDSGVPDRFTGSGSGTDFTLKISRIEAEDLGLYYCWQGTHFPRTFGGGTKLEIKGSENLYFQSHHHHHH
notes: Monovalent for TfR1; also called VHH-scFv
Kd [1]: 3.44 nM | koff [1]: 0.0075 s⁻¹ | kon [1]: 2.18e+06 M⁻¹ s⁻¹

B2: ProA positive control 1 with GGHHHHHH tag (VHH)
VHH: QVQLQESGGGLVQPGGSLRLSCAASGFTFSSYAMSWVRQAPGKGLEWVSAISGSGGSTYYADSVKGRFTISRDNSKNTLYLQMNSLRAEDTAVYYCGTDMEVWGKGTTVTVSSGGHHHHHH
binding result [2]: no binding (tested: 100 nM)

B3: KB_A19 (humanized variant of KB_A01) (VHH)
VHH: EVQLVESGGGLVQPGGSLRLSCAASGSIFGSKRMGWVRQAPGKGLEWVSAITYRGTTYYADSVKGRFTISRDNSKNTLYLQMNSLRAEDTAVYYCARFTTDNYWGQGTLVTVSS
notes: Free VHH from CHO cells without tag; also run as His6-tagged E. coli form
binding result [3]: no binding (tested: 50 nM)

B4: KB_A01, monomeric free VHH with C-terminal 6xHis tag and C-tag (VHH)
VHH: QVQLQESGGGSVQAGGSLSLSCAASGSIFGSKRMGWFRQAPGEQRDVVATITYRGTTEYADSVKGRFTISRDNAKNTVYLQMNNLKPEDTAVYYCWMFTTDNYWGQGTQVTVSS
notes: From the periplasm of E. coli
binding result [4]: no binding (tested: 6.25 to 100 nM) | Kd [5]: 4.1 nM | koff [5]: 0.00414 s⁻¹ | kon [5]: 1.01e+06 M⁻¹ s⁻¹ | fold lower affinity (KD) than the bivalent BA1 [6]: 206 fold

B5: KB_A18 (humanized variant of KB_A01) (VHH)
VHH: B4 VHH with Q1E, Q5V, S11L, A14P, S19R, E43K, V78I, N84S, K86R, Q109L
notes: Free VHH from CHO cells without tag; also run as His6-tagged E. coli form; also called KB3_A18
binding result [7]: binds

B6: KB_A30 (KB_A18 plus W96A) (VHH)
VHH: EVQLVESGGGLVQPGGSLRLSCAASGSIFGSKRMGWFRQAPGKQRDVVATITYRGTTEYADSVKGRFTISRDNAKNTIYLQMNSLRPEDTAVYYCAMFTTDNYWGQGTLVTVSS
notes: Free VHH from CHO cells, no tag
binding result [3]: no binding (tested: 50 nM)

B7: KB_A23 (KB_A18 plus D46E) (VHH)
VHH: B6 VHH with D46E, A96W
notes: as for B6
binding result [7]: binds

B8: KB_A21 (KB_A18 plus Q44G) (VHH)
VHH: B6 VHH with Q44G, A96W
notes: as for B6
binding result [7]: binds

B9: KB_A22 (KB_A18 plus R45L) (VHH)
VHH: B6 VHH with R45L, A96W
notes: as for B6
binding result [7]: binds

B10: KB_A16 (humanized variant of KB_A01) (VHH)
VHH: B6 VHH with L11S, I78V, A96W, L109Q
notes: Free VHH from CHO cells without tag
binding result [7]: binds

B11: KB_A28 (KB_A18 plus A74S) (VHH)
VHH: B6 VHH with A74S, A96W
notes: as for B6
binding result [7]: binds

B12: KB_A01 clone displayed on phage (VHH)
VHH: B4 VHH
binding result [8]: no binding

B13: KB_A26 (KB_A18 plus T50A) (VHH)
VHH: B6 VHH with T50A, A96W
notes: as for B6
binding result [3]: no binding (tested: 50 nM)

B14: KB_A20 (KB_A18 plus F37V) (VHH)
VHH: B6 VHH with F37V, A96W
notes: Free VHH from CHO cells, no tag, purified on PrismA resin
binding result [3]: no binding (tested: 50 nM)

B15: KB_A17 (humanized variant of KB_A01) (VHH)
VHH: B6 VHH with I78V, A96W, L109Q
notes: as for B3
binding result [7]: binds

B16: KB_A27 (KB_A18 plus E58Y) (VHH)
VHH: B6 VHH with E58Y, A96W
notes: as for B6
binding result [9]: binds

B17: KB_A31 (KB_A18 plus M97R) (VHH)
VHH: B6 VHH with A96W, M97R
notes: as for B6
binding result [3]: no binding (tested: 50 nM)

B18: KB_A25 (KB_A18 plus A49S) (VHH)
VHH: B6 VHH with A49S, A96W
notes: as for B6
binding result [3]: no binding (tested: 50 nM)

B19: KB_A24 (KB_A18 plus V47W) (VHH)
VHH: B6 VHH with V47W, A96W
notes: as for B6
binding result [10]: binds

B20: KB_A12 (KB_A01: S19R, N84S) with GGHHHHHH tag (VHH)
VHH: QVQLQESGGGSVQAGGSLRLSCAASGSIFGSKRMGWFRQAPGEQRDVVATITYRGTTEYADSVKGRFTISRDNAKNTVYLQMNSLKPEDTAVYYCWMFTTDNYWGQGTQVTVSSGGHHHHHH
binding result [11]: binds

B21: KB_A15 (KB_A01: S19R, V78I, N84S), His6-tagged (VHH)
VHH: B4 VHH with S19R, V78I, N84S
notes: also called KB3_A15
binding result [7]: binds

B22: scFv-KB_A01 (scFv of 3D6 at the N-terminus of KB_A01) (bispecific antibody)
chain: EVKLVESGGGLVKPGASLKLSCAASGFTFSNYGMSWVRQNSDKRLEWVASIRSGGGRTYYSDNVKGRFTISRENAKNTLYLQMSSLKSEDTALYYCVRYDHYSGSSDYWGQGTTVTVSGGGGSGGGGSGGGGSYVVMTQTPLTLSVTIGQPASISCKSSQSLLDSDGKTYLNWLLQRPGQSPKRLIYLVSKLDSGVPDRFTGSGSGTDFTLKISRIEAEDLGLYYCWQGTHFPRTFGGGTKLEIKGGGGSGGGGSGGGGSQVQLQESGGGSVQAGGSLSLSCAASGSIFGSKRMGWFRQAPGEQRDVVATITYRGTTEYADSVKGRFTISRDNAKNTVYLQMNNLKPEDTAVYYCWMFTTDNYWGQGTQVTVSSGSENLYFQSHHHHHH
notes: Monovalent for TfR1; also called scFv-VHH
Kd [1]: 3.16 nM | koff [1]: 0.00539 s⁻¹ | kon [1]: 1.7e+06 M⁻¹ s⁻¹
